In paper PMC6555819, “Comprehensive study of nuclear receptor DNA binding provides a revised framework for understanding receptor specificity”:
Positions count from the first letter of the chain named.

B1: NRC3_wobSeed116_DR4_G11A_o1 (dsDNA)
DNA 1: GCAGAATGAGATTACCAAAGATCAGGGAAACGCTTGGCGATTGACAGCGTAGAATGAAGG
DNA 2: CCTTCATTCTACGCTGTCAATCGCCAAGCGTTTCCCTGATCTTTGGTAATCTCATTCTGC
B2: NRC3_wobSeed34_DR1_G14T_o1 (dsDNA)
DNA 1: GCATCGAAAGGTCTAAGGTGAGTATACCCACCCGAAGCGATTGACAGCGTAGAATGAAGG
DNA 2: CCTTCATTCTACGCTGTCAATCGCTTCGGGTGGGTATACTCACCTTAGACCTTTCGATGC
B3: NRC3_wobSeed34_DR1_G14C_o1 (dsDNA)
DNA 1: B2 DNA 1 with T14C
DNA 2: B2 DNA 2 with A47G
B4: NRC3_wobSeed66_DR2_C13G_o1 (dsDNA)
DNA 1: GCAATACAGGGTGACTAGGCCAGAGTAGGTACGAATGCGATTGACAGCGTAGAATGAAGG
DNA 2: CCTTCATTCTACGCTGTCAATCGCATTCGTACCTACTCTGGCCTAGTCACCCTGTATTGC
B5: NRC3_wobSeed100_DR4_T22C_o1 (dsDNA)
DNA 1: GCCCTACTGGGCCACGAAAGGCCATTGATTCAGTGAGCGATTGACAGCGTAGAATGAAGG
DNA 2: CCTTCATTCTACGCTGTCAATCGCTCACTGAATCAATGGCCTTTCGTGGCCCAGTAGGGC
B6: NRC3_wobSeed28_DR1_C20G_o1 (dsDNA)
DNA 1: GCCCTACTGGGCCAAAGGTGATTGATTCCAATGCTCGCGATTGACAGCGTAGAATGAAGG
DNA 2: CCTTCATTCTACGCTGTCAATCGCGAGCATTGGAATCAATCACCTTTGGCCCAGTAGGGC
B7: NRC3_wobSeed113_DR4_A24C_o1 (dsDNA)
DNA 1: GCATATGTAGGTTAGCTGGGGTCCTTCAGACTAGGCGCGATTGACAGCGTAGAATGAAGG
DNA 2: CCTTCATTCTACGCTGTCAATCGCGCCTAGTCTGAAGGACCCCAGCTAACCTACATATGC
B8: NRC3_wobSeed74_DR3_A23C_o1 (dsDNA)
DNA 1: GCTCTAGTTGGTCACGGAGGTCCCACACGACGGGTAGCGATTGACAGCGTAGAATGAAGG
DNA 2: CCTTCATTCTACGCTGTCAATCGCTACCCGTCGTGTGGGACCTCCGTGACCAACTAGAGC
B9: NRC3_wobSeed117_DR4_G10C_o1 (dsDNA)
DNA 1: GCCGTCAAACTTCAACTAAGGTAACGTAAAGCACGCGCGATTGACAGCGTAGAATGAAGG
DNA 2: CCTTCATTCTACGCTGTCAATCGCGCGTGCTTTACGTTACCTTAGTTGAAGTTTGACGGC
B10: NRC3_wobSeed77_DR3_G11C_o1 (dsDNA)
DNA 1: GCACTTACGGCTCAACGAGGTTATAGCACGCGTATAGCGATTGACAGCGTAGAATGAAGG
DNA 2: CCTTCATTCTACGCTGTCAATCGCTATACGCGTGCTATAACCTCGTTGAGCCGTAAGTGC
B11: NRC3_wobSeed40_DR1_C13T_o1 (dsDNA)
DNA 1: GCTAGCCTAGGTTATGGGCCAGTATACCACGCGAACGCGATTGACAGCGTAGAATGAAGG
DNA 2: CCTTCATTCTACGCTGTCAATCGCGTTCGCGTGGTATACTGGCCCATAACCTAGGCTAGC
B12: NRC3_wobSeed141_DR5_C13G_o1 (dsDNA)
DNA 1: GCAGTCAAAGTTGAGGACGAGGTAACGTAAAGCACGGCGATTGACAGCGTAGAATGAAGG
DNA 2: CCTTCATTCTACGCTGTCAATCGCCGTGCTTTACGTTACCTCGTCCTCAACTTTGACTGC
B13: NRC3_wobSeed136_DR5_A14G_o1 (dsDNA)
DNA 1: GCTAGCCTAGGTCGTTCAGGGGCCAGTATAGAAAGCGCGATTGACAGCGTAGAATGAAGG
DNA 2: CCTTCATTCTACGCTGTCAATCGCGCTTTCTATACTGGCCCCTGAACGACCTAGGCTAGC

What follows are binders tested against LXRa:RXRa (Homo sapiens, UniProt Q13133;P19793 full;full) (assay: no ligand; PBM; 270 nM : 90 nM RXRa; PBS pH 7.4, 2% milk, 0.02% Triton X-100, 1 mM DTT, BSA, 0.4 mg/ml salmon testes DNA). Settings: tags: His kept;His cleaved; copies: 1;1; label: surface-attached array probe.
Summary of the method: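 Regression normalization was applied to scanned fluorescence from custom Agilent 4×180K protein-binding microarrays. Before scanning, arrays were incubated 1 h with ligand-free nuclear receptor dimers, and binding was detected with antibodies against each partner (one per run). Binding z-scores use the random background probes as reference.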

Sequence of LXRa:RXRa (Q13133 whole entry, chain 1 of 2): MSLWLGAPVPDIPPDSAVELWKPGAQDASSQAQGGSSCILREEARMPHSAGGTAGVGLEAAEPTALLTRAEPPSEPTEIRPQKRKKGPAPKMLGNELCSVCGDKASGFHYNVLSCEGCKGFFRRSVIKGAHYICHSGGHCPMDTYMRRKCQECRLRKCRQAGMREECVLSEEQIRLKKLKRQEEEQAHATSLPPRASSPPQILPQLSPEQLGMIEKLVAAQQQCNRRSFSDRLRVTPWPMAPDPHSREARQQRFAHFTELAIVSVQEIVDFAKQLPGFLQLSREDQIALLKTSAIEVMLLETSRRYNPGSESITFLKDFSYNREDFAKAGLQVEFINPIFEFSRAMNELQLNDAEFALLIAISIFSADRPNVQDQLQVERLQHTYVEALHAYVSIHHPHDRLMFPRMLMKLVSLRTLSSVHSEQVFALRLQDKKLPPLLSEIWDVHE
Sequence of LXRa:RXRa (P19793 whole entry, chain 2 of 2): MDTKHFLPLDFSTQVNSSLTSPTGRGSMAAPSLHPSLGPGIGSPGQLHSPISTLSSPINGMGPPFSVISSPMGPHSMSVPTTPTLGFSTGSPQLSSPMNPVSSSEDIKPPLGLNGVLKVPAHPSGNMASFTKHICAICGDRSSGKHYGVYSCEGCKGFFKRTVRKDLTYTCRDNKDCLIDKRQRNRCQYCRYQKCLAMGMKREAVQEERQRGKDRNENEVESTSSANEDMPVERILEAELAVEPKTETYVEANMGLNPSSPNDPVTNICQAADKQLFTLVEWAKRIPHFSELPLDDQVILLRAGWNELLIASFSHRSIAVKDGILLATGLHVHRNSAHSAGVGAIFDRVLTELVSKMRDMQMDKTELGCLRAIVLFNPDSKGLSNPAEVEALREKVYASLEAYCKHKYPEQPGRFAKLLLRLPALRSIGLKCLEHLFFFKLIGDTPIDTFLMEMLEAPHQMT

In order of falling binding signal:
1. B8  0.41 PBM z-score against 500 random probes
2. B7  0.37 PBM z-score against 500 random probes
3. B2  0.34 PBM z-score against 500 random probes
4. B10  0.33 PBM z-score against 500 random probes
5. B9  0.31 PBM z-score against 500 random probes
6. B3  0.27 PBM z-score against 500 random probes
7. B4  0.22 PBM z-score against 500 random probes
8. B13  0.19 PBM z-score against 500 random probes
9. B6  0.13 PBM z-score against 500 random probes
10. B11  0.05 PBM z-score against 500 random probes
11. B5  -0.05 PBM z-score against 500 random probes
12. B12  -0.07 PBM z-score against 500 random probes
13. B1  -0.15 PBM z-score against 500 random probes
